B1: 23L3, 72A (protein, listed as Rattus norvegicus)
chain: AFDGTWKVDRNENYEKFMEKMGLNVVKRKLGAHDNLKLTITQEGNKFTVKESSNFRNIDVVFELGVDFAYSAADGTELTGTWTMEGNKLVGKFKRVDNGKELIAVREISGNELIQTYTYEGVEAKRIFKKE
modifications: PEPTIDE (1)...(131) wild-type rat intestinal fatty acid binding protein
B2: 23N1, 72A (protein, listed as Rattus norvegicus)
chain: AFDGTWKVDRNENYEKFMEKMGNNVVKRKLGAHDNLKLTITQEGNKFTVKESSNFRNIDVVFELGVDFAYSAADGTELTGTWTMEGNKLVGKFKRVDNGKELIAVREISGNELIQTYTYEGVEAKRIFKKE
modifications: PEPTIDE (1)...(131) wild-type rat intestinal fatty acid binding protein
B3: 23P1, 72A (protein, listed as Rattus norvegicus)
chain: AFDGTWKVDRNENYEKFMEKMGPNVVKRKLGAHDNLKLTITQEGNKFTVKESSNFRNIDVVFELGVDFAYSAADGTELTGTWTMEGNKLVGKFKRVDNGKELIAVREISGNELIQTYTYEGVEAKRIFKKE
modifications: PEPTIDE (1)...(131) wild-type rat intestinal fatty acid binding protein
B4: 23R3, 72A (protein, listed as Rattus norvegicus)
chain: AFDGTWKVDRNENYEKFMEKMGRNVVKRKLGAHDNLKLTITQEGNKFTVKESSNFRNIDVVFELGVDFAYSAADGTELTGTWTMEGNKLVGKFKRVDNGKELIAVREISGNELIQTYTYEGVEAKRIFKKE
modifications: PEPTIDE (1)...(131) wild-type rat intestinal fatty acid binding protein
B5: 23T1, 72A (protein, listed as Rattus norvegicus)
chain: AFDGTWKVDRNENYEKFMEKMGTNVVKRKLGAHDNLKLTITQEGNKFTVKESSNFRNIDVVFELGVDFAYSAADGTELTGTWTMEGNKLVGKFKRVDNGKELIAVREISGNELIQTYTYEGVEAKRIFKKE
modifications: PEPTIDE (1)...(131) wild-type rat intestinal fatty acid binding protein
B6: 23V2, 72A (protein, listed as Rattus norvegicus)
chain: AFDGTWKVDRNENYEKFMEKMGVNVVKRKLGAHDNLKLTITQEGNKFTVKESSNFRNIDVVFELGVDFAYSAADGTELTGTWTMEGNKLVGKFKRVDNGKELIAVREISGNELIQTYTYEGVEAKRIFKKE
modifications: PEPTIDE (1)...(131) wild-type rat intestinal fatty acid binding protein
B7: 23W1, 72A (protein, listed as Rattus norvegicus)
chain: AFDGTWKVDRNENYEKFMEKMGWNVVKRKLGAHDNLKLTITQEGNKFTVKESSNFRNIDVVFELGVDFAYSAADGTELTGTWTMEGNKLVGKFKRVDNGKELIAVREISGNELIQTYTYEGVEAKRIFKKE
modifications: PEPTIDE (1)...(131) wild-type rat intestinal fatty acid binding protein
B8: 23Y1, 72A (protein, listed as Rattus norvegicus)
chain: AFDGTWKVDRNENYEKFMEKMGYNVVKRKLGAHDNLKLTITQEGNKFTVKESSNFRNIDVVFELGVDFAYSAADGTELTGTWTMEGNKLVGKFKRVDNGKELIAVREISGNELIQTYTYEGVEAKRIFKKE
modifications: PEPTIDE (1)...(131) wild-type rat intestinal fatty acid binding protein
B9: 31C1, 72A (protein, listed as Rattus norvegicus)
chain: AFDGTWKVDRNENYEKFMEKMGINVVKRKLCAHDNLKLTITQEGNKFTVKESSNFRNIDVVFELGVDFAYSAADGTELTGTWTMEGNKLVGKFKRVDNGKELIAVREISGNELIQTYTYEGVEAKRIFKKE
modifications: PEPTIDE (1)...(131) wild-type rat intestinal fatty acid binding protein
B10: 31D2, 72A (protein, listed as Rattus norvegicus)
chain: AFDGTWKVDRNENYEKFMEKMGINVVKRKLDAHDNLKLTITQEGNKFTVKESSNFRNIDVVFELGVDFAYSAADGTELTGTWTMEGNKLVGKFKRVDNGKELIAVREISGNELIQTYTYEGVEAKRIFKKE
modifications: PEPTIDE (1)...(131) wild-type rat intestinal fatty acid binding protein
B11: 31E3, 72A (protein, listed as Rattus norvegicus)
chain: AFDGTWKVDRNENYEKFMEKMGINVVKRKLEAHDNLKLTITQEGNKFTVKESSNFRNIDVVFELGVDFAYSAADGTELTGTWTMEGNKLVGKFKRVDNGKELIAVREISGNELIQTYTYEGVEAKRIFKKE
modifications: PEPTIDE (1)...(131) wild-type rat intestinal fatty acid binding protein
B12: 31F2, 72A (protein, listed as Rattus norvegicus)
chain: AFDGTWKVDRNENYEKFMEKMGINVVKRKLFAHDNLKLTITQEGNKFTVKESSNFRNIDVVFELGVDFAYSAADGTELTGTWTMEGNKLVGKFKRVDNGKELIAVREISGNELIQTYTYEGVEAKRIFKKE
modifications: PEPTIDE (1)...(131) wild-type rat intestinal fatty acid binding protein
B13: 31I1, 72A (protein, listed as Rattus norvegicus)
chain: AFDGTWKVDRNENYEKFMEKMGINVVKRKLIAHDNLKLTITQEGNKFTVKESSNFRNIDVVFELGVDFAYSAADGTELTGTWTMEGNKLVGKFKRVDNGKELIAVREISGNELIQTYTYEGVEAKRIFKKE
modifications: PEPTIDE (1)...(131) wild-type rat intestinal fatty acid binding protein
B14: 31K2, 72A (protein, listed as Rattus norvegicus)
chain: AFDGTWKVDRNENYEKFMEKMGINVVKRKLKAHDNLKLTITQEGNKFTVKESSNFRNIDVVFELGVDFAYSAADGTELTGTWTMEGNKLVGKFKRVDNGKELIAVREISGNELIQTYTYEGVEAKRIFKKE
modifications: PEPTIDE (1)...(131) wild-type rat intestinal fatty acid binding protein
B15: 31M2, 72A (protein, listed as Rattus norvegicus)
chain: AFDGTWKVDRNENYEKFMEKMGINVVKRKLMAHDNLKLTITQEGNKFTVKESSNFRNIDVVFELGVDFAYSAADGTELTGTWTMEGNKLVGKFKRVDNGKELIAVREISGNELIQTYTYEGVEAKRIFKKE
modifications: PEPTIDE (1)...(131) wild-type rat intestinal fatty acid binding protein
B16: 31N2, 72A (protein, listed as Rattus norvegicus)
chain: AFDGTWKVDRNENYEKFMEKMGINVVKRKLNAHDNLKLTITQEGNKFTVKESSNFRNIDVVFELGVDFAYSAADGTELTGTWTMEGNKLVGKFKRVDNGKELIAVREISGNELIQTYTYEGVEAKRIFKKE
modifications: PEPTIDE (1)...(131) wild-type rat intestinal fatty acid binding protein
B17: 31P1, 72A (protein, listed as Rattus norvegicus)
chain: AFDGTWKVDRNENYEKFMEKMGINVVKRKLPAHDNLKLTITQEGNKFTVKESSNFRNIDVVFELGVDFAYSAADGTELTGTWTMEGNKLVGKFKRVDNGKELIAVREISGNELIQTYTYEGVEAKRIFKKE
modifications: PEPTIDE (1)...(131) wild-type rat intestinal fatty acid binding protein

Tests used:
Format in all cases: binding
[1] = Probe fluorescence ratio response to arachidonic acid relative to ADIFAB2; conditions: arachidonic acid; response relative to ADIFAB2
Procedure, shortened: (§1)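 Fluorescently labeled rat intestinal FABP variants were read at two emission wavelengths, near the unbound maximum (about 420 to 480 nm) and the FFA-bound maximum (about 495 to 580 nm). R = Fλ1/Fλ2 after subtracting probe-free intensity; ΔR = R+agent − R0, normalized to ADIFAB2 (rI-FABP-L72A).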

[2] = Probe fluorescence ratio response to oleic acid relative to ADIFAB2; conditions: response relative to ADIFAB2
Procedure, shortened: as §1

[3] = Probe fluorescence ratio response to linoleic acid relative to ADIFAB2; conditions: response relative to ADIFAB2
Procedure, shortened: as §1

[4] = Probe fluorescence ratio response to palmitic acid relative to ADIFAB2; conditions: response relative to ADIFAB2
Procedure, shortened: as §1

[5] = Probe fluorescence ratio response to linolenic acid relative to ADIFAB2; conditions: response relative to ADIFAB2
Procedure, shortened: as §1

Row | Molecule | DR/DR AA [1] | DR/DR OA [2] | DR/DR LA [3] | DR/DR PA [4] | DR/DR LNA [5]
1 | B1 | 1.17 | 1.06 | 1.04 | 0.93 | 1.03
2 | B2 | 0.12 | 0.12 | 0.13 | 0.10 | 0.13
3 | B3 | 1.25 | 1.24 | 1.36 | 0.64 | 1.38
4 | B4 | 0.14 | 0.12 | 0.14 | 0.10 | 0.14
5 | B5 | 0.22 | 0.19 | 0.33 | 0.24 | 0.21
6 | B6 | 1.46 | 1.56 | 1.73 | 1.48 | 1.35
7 | B7 | 0.62 | 0.45 | 0.79 | 0.49 | 0.96
8 | B8 | 0.49 | 0.41 | 0.44 | 0.28 | 0.44
9 | B9 | 0.32 | 0.30 | 0.36 | 0.23 | 0.36
10 | B10 | 0.20 | 0.13 | 0.16 | 0.06 | 0.14
11 | B11 | 0.55 | 0.50 | 0.74 | 0.38 | 0.82
12 | B12 | 1.41 | 1.43 | 1.76 | 1.21 | 1.62
13 | B13 | 0.30 | −0.21 | 0.17 | 0.09 | 0.41
14 | B14 | 0.85 | 0.97 | 0.91 | 0.42 | 0.90
15 | B15 | 0.52 | 1.08 | 0.41 | 0.46 | 0.57
16 | B16 | 0.88 | 0.91 | 1.04 | 0.50 | 1.06
17 | B17 | 0.25 | 0.22 | 0.30 | 0.23 | 0.27
